The data set has as its target T1, Pfu-E10 DNA polymerase (evolved Pfu polB variant) (Pyrococcus furiosus, UniProt P61875 1-775, R407I).
T1 sequence: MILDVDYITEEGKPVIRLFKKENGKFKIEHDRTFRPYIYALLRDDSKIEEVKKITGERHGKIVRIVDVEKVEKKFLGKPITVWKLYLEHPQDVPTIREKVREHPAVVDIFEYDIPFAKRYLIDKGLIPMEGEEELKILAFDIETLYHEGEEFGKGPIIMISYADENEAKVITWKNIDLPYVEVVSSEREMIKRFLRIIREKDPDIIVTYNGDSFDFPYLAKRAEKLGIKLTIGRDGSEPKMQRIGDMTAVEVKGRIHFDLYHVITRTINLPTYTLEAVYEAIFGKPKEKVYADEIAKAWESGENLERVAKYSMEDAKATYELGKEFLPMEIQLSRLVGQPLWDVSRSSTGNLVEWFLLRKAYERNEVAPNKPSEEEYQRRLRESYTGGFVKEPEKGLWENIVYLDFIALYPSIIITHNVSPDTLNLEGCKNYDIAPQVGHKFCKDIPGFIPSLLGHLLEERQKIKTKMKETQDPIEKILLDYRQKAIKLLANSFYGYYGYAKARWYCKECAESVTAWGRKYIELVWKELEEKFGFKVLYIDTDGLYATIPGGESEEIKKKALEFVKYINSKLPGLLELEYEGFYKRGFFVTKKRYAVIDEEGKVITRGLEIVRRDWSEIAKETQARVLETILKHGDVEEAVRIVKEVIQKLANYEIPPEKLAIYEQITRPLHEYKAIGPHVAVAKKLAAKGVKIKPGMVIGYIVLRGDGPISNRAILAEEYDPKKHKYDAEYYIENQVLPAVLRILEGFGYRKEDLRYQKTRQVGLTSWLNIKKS
In words: X-ray crystallography (2.9 A); binary complex; 10 mM dCTP in crystallisation medium but no dNTP or metal ion seen at active site; Complex: 20 mM Tris, 50 mM NaCl, 5 mM MgCl2, 5% glycerol, 1 mM dCTP, 1:5 protein:DNA, 4 C overnight; crystals: 0.1 M Na cacodylate pH 6.5, 0.1 M Na citrate, 30% isopropanol, 10 mM dCTP. Particulars: protein: recombinant; 5' overhang 3 nt (template).

B1: primer:template duplex (crystal) (dsDNA)
DNA 1: ACGGGTAAGCA
DNA 2: TGCTTACC
modifications: 3'-terminal C of primer is 2',3'-dideoxycytidine (DOC)
For B1, the binding result is “binds”.

Source of the values: paper PMC3733885, “Structures of an Apo and a Binary Complex of an Evolved Archeal B Family DNA Polymerase Capable of Synthesising Highly Cy-Dye Labelled DNA”.
